Where a chain is given by its changes, count along the chain named. Names may count otherwise.

Usually Kd stands for the free concentration of one partner at which half of the binding sites on the other are occupied at equilibrium, for simple one-to-one binding. A higher Kd goes with weaker binding.

Sequences and labels used below:
T1: EsCas13d, nuclease-dead (Eubacterium siraeum, UniProt B0MS50, R295A;H300A;R849A;H854A)
T1 sequence: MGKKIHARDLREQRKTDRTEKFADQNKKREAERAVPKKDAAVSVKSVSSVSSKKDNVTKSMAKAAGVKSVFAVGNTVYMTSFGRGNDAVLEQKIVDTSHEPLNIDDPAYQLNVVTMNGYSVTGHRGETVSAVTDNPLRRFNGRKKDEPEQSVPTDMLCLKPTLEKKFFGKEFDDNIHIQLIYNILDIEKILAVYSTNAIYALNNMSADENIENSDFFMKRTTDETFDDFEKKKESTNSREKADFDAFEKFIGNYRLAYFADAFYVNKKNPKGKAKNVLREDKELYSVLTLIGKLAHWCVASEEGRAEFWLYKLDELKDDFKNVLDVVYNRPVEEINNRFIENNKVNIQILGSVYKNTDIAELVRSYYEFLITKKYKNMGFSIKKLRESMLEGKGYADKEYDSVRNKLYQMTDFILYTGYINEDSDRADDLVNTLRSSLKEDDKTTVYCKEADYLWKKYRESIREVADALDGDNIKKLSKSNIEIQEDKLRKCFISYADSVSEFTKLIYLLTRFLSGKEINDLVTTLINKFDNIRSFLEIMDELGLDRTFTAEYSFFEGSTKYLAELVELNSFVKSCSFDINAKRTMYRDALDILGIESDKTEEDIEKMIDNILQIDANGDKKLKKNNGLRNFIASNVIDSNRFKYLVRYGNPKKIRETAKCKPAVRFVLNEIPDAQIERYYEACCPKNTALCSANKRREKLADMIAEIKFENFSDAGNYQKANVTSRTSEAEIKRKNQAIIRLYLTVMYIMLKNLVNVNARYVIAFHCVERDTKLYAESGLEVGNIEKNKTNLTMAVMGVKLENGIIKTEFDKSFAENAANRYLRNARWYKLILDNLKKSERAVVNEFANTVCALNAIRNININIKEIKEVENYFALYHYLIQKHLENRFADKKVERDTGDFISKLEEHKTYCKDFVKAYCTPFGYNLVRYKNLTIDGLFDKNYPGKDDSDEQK

B1: target 1 insC 3' of 11,insA 3' of 5 (mixed)
RNA 1: CACCCGUGCAAAAAUGCAGGGGUCUAAAACUGAGCGGAUAACCUCUCUAUGG
RNA 2: GGGAAUGGAUCCACAUCUACGAAUUCGUACCAUAGAGAGGUCUAUCCGACUCACCGAGAUCGGAAGAGCACACGU
B2: target 1 MT 5'PFS GUA 3'PFS CUA (mixed)
RNA 1: B1 RNA 1
RNA 2: GGGAAUGGAUCCACAUCUACGAAUUCGUACCAUAGAGAGGUUAUCCGCUCACUAAGAUCGGAAGAGCACACGU
B3: target 1 MT 5'PFS UAA 3'PFS AAC (mixed)
RNA 1: B1 RNA 1
RNA 2: B2 RNA 2 with G27U, U28A, C52A, U53A, A54C
B4: target 1 insU 3' of 12,insA 3' of 7 (mixed)
RNA 1: B1 RNA 1
RNA 2: B1 RNA 2 with C42U, C47A, G48C, A49G
B5: target 1 MT 5'PFS GCA 3'PFS UUC (mixed)
RNA 1: B1 RNA 1
RNA 2: B2 RNA 2 with U28C, C52U, A54C
B6: target 1 MT 5'PFS UGG 3'PFS UAA (mixed)
RNA 1: B1 RNA 1
RNA 2: B2 RNA 2 with G27U, U28G, A29G, C52U, U53A
B7: target 1 MT 5'PFS GAC 3'PFS CUU (mixed)
RNA 1: B1 RNA 1
RNA 2: B2 RNA 2 with U28A, A29C, A54U
B8: target 1 MT 5'PFS UAA 3'PFS AAA (mixed)
RNA 1: B1 RNA 1
RNA 2: B2 RNA 2 with G27U, U28A, C52A, U53A
B9: target 1 MT 5'PFS ACG 3'PFS UGU (mixed)
RNA 1: B1 RNA 1
RNA 2: B2 RNA 2 with G27A, U28C, A29G, C52U, U53G, A54U
B10: target 1 MT 5'PFS GCG 3'PFS UAA (mixed)
RNA 1: B1 RNA 1
RNA 2: B2 RNA 2 with U28C, A29G, C52U, U53A
B11: target 1 MT 5'PFS GUA 3'PFS CUG (mixed)
RNA 1: B1 RNA 1
RNA 2: B2 RNA 2 with A54G
B12: target 1 MT 5'PFS GAA 3'PFS AGG (mixed)
RNA 1: B1 RNA 1
RNA 2: B2 RNA 2 with U28A, C52A, U53G, A54G
B13: target 1 MT 5'PFS UAA 3'PFS CGA (mixed)
RNA 1: B1 RNA 1
RNA 2: B2 RNA 2 with G27U, U28A, U53G
B14: target 1 MT 5'PFS GCA 3'PFS ACA (mixed)
RNA 1: B1 RNA 1
RNA 2: B2 RNA 2 with U28C, C52A, U53C
B15: target 1 MT 5'PFS GUU 3'PFS CCA (mixed)
RNA 1: B1 RNA 1
RNA 2: B2 RNA 2 with A29U, U53C
B16: target 1 MT 5'PFS GCU 3'PFS CGU (mixed)
RNA 1: B1 RNA 1
RNA 2: B2 RNA 2 with U28C, A29U, U53G, A54U
B17: target 1 MT 5'PFS UAA 3'PFS AAG (mixed)
RNA 1: B1 RNA 1
RNA 2: B2 RNA 2 with G27U, U28A, C52A, U53A, A54G
B18: target 1 MT 5'PFS GAC 3'PFS CUC (mixed)
RNA 1: B1 RNA 1
RNA 2: B2 RNA 2 with U28A, A29C, A54C
B19: target 1 MT 5'PFS UAA 3'PFS AAU (mixed)
RNA 1: B1 RNA 1
RNA 2: B2 RNA 2 with G27U, U28A, C52A, U53A, A54U
B20: target 1 MT 5'PFS AAU 3'PFS ACA (mixed)
RNA 1: B1 RNA 1
RNA 2: B2 RNA 2 with G27A, U28A, A29U, C52A, U53C
B21: target 1 U11C,C21U (mixed)
RNA 1: B1 RNA 1
RNA 2: B2 RNA 2 with C31U, U41C, U53C, A54G
B22: target 1 MT 5'PFS GAC 3'PFS CUG (mixed)
RNA 1: B1 RNA 1
RNA 2: B2 RNA 2 with U28A, A29C, A54G
B23: target 1 MT 5'PFS CCG 3'PFS AUU (mixed)
RNA 1: B1 RNA 1
RNA 2: B2 RNA 2 with G27C, U28C, A29G, C52A, A54U
B24: target 1 MT 5'PFS GAC 3'PFS CUA (mixed)
RNA 1: B1 RNA 1
RNA 2: B2 RNA 2 with U28A, A29C
B25: target 1 MT 5'PFS ACG 3'PFS UGA (mixed)
RNA 1: B1 RNA 1
RNA 2: B2 RNA 2 with G27A, U28C, A29G, C52U, U53G
B26: target 1 MT 5'PFS GUU 3'PFS CCC (mixed)
RNA 1: B1 RNA 1
RNA 2: B2 RNA 2 with A29U, U53C, A54C
B27: target 1 MT 5'PFS GGC 3'PFS CGG (mixed)
RNA 1: B1 RNA 1
RNA 2: B2 RNA 2 with U28G, A29C, U53G, A54G
B28: target 1 C7G,C21A (mixed)
RNA 1: B1 RNA 1
RNA 2: B2 RNA 2 with C31A, C45G, U53C, A54G
B29: target 1 MT 5'PFS GUA 3'PFS CUU (mixed)
RNA 1: B1 RNA 1
RNA 2: B2 RNA 2 with A54U
B30: target 1 MT 5'PFS GCG 3'PFS UAG (mixed)
RNA 1: B1 RNA 1
RNA 2: B2 RNA 2 with U28C, A29G, C52U, U53A, A54G
B31: target 1 MT 5'PFS AAU 3'PFS ACG (mixed)
RNA 1: B1 RNA 1
RNA 2: B2 RNA 2 with G27A, U28A, A29U, C52A, U53C, A54G
B32: target 1 MT 5'PFS GCU 3'PFS CGC (mixed)
RNA 1: B1 RNA 1
RNA 2: B2 RNA 2 with U28C, A29U, U53G, A54C
B33: target 1 MT 5'PFS GUA 3'PFS CUC (mixed)
RNA 1: B1 RNA 1
RNA 2: B2 RNA 2 with A54C
B34: target 1 MT 5'PFS GUU 3'PFS CCG (mixed)
RNA 1: B1 RNA 1
RNA 2: B2 RNA 2 with A29U, U53C, A54G
B35: target 1 MT 5'PFS GCG 3'PFS UAU (mixed)
RNA 1: B1 RNA 1
RNA 2: B2 RNA 2 with U28C, A29G, C52U, U53A, A54U
B36: target 1 MT 5'PFS UAA 3'PFS CGG (mixed)
RNA 1: B1 RNA 1
RNA 2: B2 RNA 2 with G27U, U28A, U53G, A54G
B37: target 1 MT 5'PFS GGC 3'PFS CGU (mixed)
RNA 1: B1 RNA 1
RNA 2: B2 RNA 2 with U28G, A29C, U53G, A54U
B38: target 1 MT 5'PFS GUU 3'PFS CCU (mixed)
RNA 1: B1 RNA 1
RNA 2: B2 RNA 2 with A29U, U53C, A54U

This data set has as its target T1, EsCas13d, nuclease-dead. The experiment in a line: crRNA (strand 1, pre-loaded); Mg2+; 40 mM Tris-HCl pH 7.5, 150 mM NaCl, 6 mM MgCl2, 1 mM DTT, 0.1% Tween-20, 0.2 mg/ml BSA; 25 C; 10 min per concentration, then washed. The conditions noted are these: tags: His6-TwinStrep-SUMO cleaved; N-terminal SNAP kept (SNAP-Surface 488); label: 3' end held by stalled T7 RNA polymerase.
Turning to B1, the Kd was determined as 7.9 ± 0.8 nM.

B2: binding was characterised by a dissociation constant (Kd) of 10.2 ± 0.7 nM.

Turning to B3, binding was characterised by a dissociation constant (Kd) of 40 ± 11 nM.

As to B4, the affinity, expressed as Kd, was 5.36 ± 0.2 nM.

The molecule B5 registered a Kd of 9.95 ± 1.2 nM.

Take B6: binding was put at a Kd of 79.5 ± 27.5 nM.

Consider B7, for which the Kd stood at 12.1 ± 3.65 nM.

B8 came in with a Kd of 47 ± 15.5 nM.

B9 displayed a Kd of about 74.5 nM.

Turning to B10, the affinity, expressed as Kd, was 10.6 ± 1.6 nM.

B11 had a Kd of 7.89 ± 0.47 nM.

The molecule B12 came in with a Kd of 81 ± 34 nM.

In turn, B13 had a Kd of 50 ± 23 nM.

As to B14, binding was put at a Kd of 25.5 ± 4.5 nM.

B15 registered a Kd of 34 ± 8 nM.

In the case of B16, the Kd came out at 33.5 ± 8 nM.

Turning to B17, binding was put at a Kd of 66 ± 26 nM.

B18 came in with a Kd of 24 ± 10 nM.

With B19, the dissociation constant Kd turned out to be 55 ± 16 nM.

The molecule B20 had a Kd of about 32 nM.

Take B21: the Kd stood at 9.9 ± 0.4 nM.

B22 had a Kd of 19 ± 6.5 nM.

Molecule B23 displayed a Kd of 3.75 ± 1.75 nM.

Regarding B24, the Kd is 15.5 ± 5 nM.

B25: the Kd worked out at 20.5 ± 7.5 nM.

The molecule B26 displayed a Kd of 26.5 ± 8.5 nM.

The molecule B27 yielded a Kd of 27.5 ± 5.5 nM.

In turn, B28 gave a Kd of 30 ± 2.3 nM.

Molecule B29 registered a Kd of 8.52 ± 0.595 nM.

B30: the Kd turned out to be 17.5 ± 4 nM.

B31 returned a Kd of 47 ± 13 nM.

As to B32, the Kd is 42.5 ± 15 nM.

As to B33, the Kd came to 13.8 ± 1.15 nM.

For B34, the Kd came out at 11.2 ± 1.55 nM.

With B35, the Kd worked out at 12.2 ± 2.95 nM.

In the case of B36, the Kd was determined as 55.5 ± 17 nM.

B37 returned a Kd of 10.7 ± 1.75 nM.

B38 yielded a Kd of 11.6 ± 1.9 nM.

The record behind these values is article PMC10786891, “Massively parallel profiling of RNA-targeting CRISPR-Cas13d”.
